Experimental data from article PMC3170326, “AKAP12 and AKAP5 form higher-order hetero-oligomers” (Journal of Molecular Signaling, 2011).

B1: GFP-tagged AKAP12 (natural protein, human, UniProt Q02952 1-1782, looked up)
chain: MGAGSSTEQRSPEQPPEGSSTPAEPEPSGGGPSAEAAPDTTADPAIAASDPATKLLQKNGQLSTINGVAEQDELSLQEGDLNGQKGALNGQGALNSQEEEEVIVTEVGQRDSEDVSKRDSDKEMATKSAVVHDITDDGQEETPEIIEQIPSSESNLEELTQPTESQANDIGFKKVFKFVGFKFTVKKDKTEKPDTVQLLTVKKDEGEGAAGAGDHKDPSLGAGEAASKESEPKQSTEKPEETLKREQSHAEISPPAESGQAVEECKEEGEEKQEKEPSKSAESPTSPVTSETGSTFKKFFTQGWAGWRKKTSFRKPKEDEVEASEKKKEQEPEKVDTEEDGKAEVASEKLTASEQAHPQEPAESAHEPRLSAEYEKVELPSEEQVSGSQGPSEEKPAPLATEVFDEKIEVHQEEVVAEVHVSTVEERTEEQKTEVEETAGSVPAEELVEMDAEPQEAEPAKELVKLKETCVSGEDPTQGADLSPDEKVLSKPPEGVVSEVEMLSSQERMKVQGSPLKKLFTSTGLKKLSGKKQKGKRGGGDEESGEHTQVPADSPDSQEEQKGESSASSPEEPEEITCLEKGLAEVQQDGEAEEGATSDGEKKREGVTPWASFKKMVTPKKRVRRPSESDKEDELDKVKSATLSSTESTASEMQEEMKGSVEEPKPEEPKRKVDTSVSWEALICVGSSKKRARRGSSSDEEGGPKAMGGDHQKADEAGKDKETGTDGILAGSQEHDPGQGSSSPEQAGSPTEGEGVSTWESFKRLVTPRKKSKSKLEEKSEDSIAGSGVEHSTPDTEPGKEESWVSIKKFIPGRRKKRPDGKQEQAPVEDAGPTGANEDDSDVPAVVPLSEYDAVEREKMEAQQAQKSAEQPEQKAATEVSKELSESQVHMMAAAVADGTRAATIIEERSPSWISASVTEPLEQVEAEAALLTEEVLEREVIAEEEPPTVTEPLPENREARGDTVVSEAELTPEAVTAAETAGPLGAEEGTEASAAEETTEMVSAVSQLTDSPDTTEEATPVQEVEGGVPDIEEQERRTQEVLQAVAEKVKEESQLPGTGGPEDVLQPVQRAEAERPEEQAEASGLKKETDVVLKVDAQEAKTEPFTQGKVVGQTTPESFEKAPQVTESIESSELVTTCQAETLAGVKSQEMVMEQAIPPDSVETPTDSETDGSTPVADFDAPGTTQKDEIVEIHEENEVASGTQSGGTEAEAVPAQKERPPAPSSFVFQEETKEQSKMEDTLEHTDKEVSVETVSILSKTEGTQEADQYADEKTKDVPFFEGLEGSIDTGITVSREKVTEVALKGEGTEEAECKKDDALELQSHAKSPPSPVEREMVVQVEREKTEAEPTHVNEEKLEHETAVTVSEEVSKQLLQTVNVPIIDGAKEVSSLEGSPPPCLGQEEAVCTKIQVQSSEASFTLTAAAEEEKVLGETANILETGETLEPAGAHLVLEEKSSEKNEDFAAHPGEDAVPTGPDCQAKSTPVIVSATTKKGLSSDLEGEKTTSLKWKSDEVDEQVACQEVKVSVAIEDLEPENGILELETKSSKLVQNIIQTAVDQFVRTEETATEMLTSELQTQAHVIKADSQDAGQETEKEGEEPQASAQDETPITSAKEESESTAVGQAHSDISKDMSEASEKTMTVEVEGSTVNDQQLEEVVLPSEEEGGGAGTKSVPEDDGHALLAERIEKSLVEPKEDEKGDDVDDPENQNSALADTDASGGLTKESPDTNGPKQKEKEDAQEVELQEGKVHSESDKAITPQAQEELQKQERESAKSELTES
notes: AKAP12 (gravin), human, full length; also called AKAP12-GFP; full-length AKAP12; source: A431 cells, stably expressing, in lysate

Key:
[1] = biological target: His-tagged AKAP12 (purified, used for steric-exclusion chromatography) (human) (UniProt Q02952); experiment: SEC; purified His-tagged AKAP5 or AKAP12 alone on HiPrep Sephacryl S-400 HR 16/60, PBS with 0.01% NaN3; fractions analysed by SDS-PAGE and immunoblot; homo-oligomer size from elution position
[2] = biological target: T1, HA-tagged full-length AKAP5 (human, UniProt P24588 1-427); experiment: co-IP; anti-HA immunoprecipitation from whole-cell lysates of A431 cells co-expressing an HA-tagged and a GFP-tagged AKAP; cells untreated, treated with 10 uM isoproterenol for 10-30 min, or washed free of agonist for 2 h; immunoblot; settings: partners not purified
T1 construct: AKAP5 (AKAP79), human, full length; pCMV-HA vector; also called HA-AKAP5; source: A431 cells, transiently transfected, in lysate
T1 sequence (P24588 whole entry): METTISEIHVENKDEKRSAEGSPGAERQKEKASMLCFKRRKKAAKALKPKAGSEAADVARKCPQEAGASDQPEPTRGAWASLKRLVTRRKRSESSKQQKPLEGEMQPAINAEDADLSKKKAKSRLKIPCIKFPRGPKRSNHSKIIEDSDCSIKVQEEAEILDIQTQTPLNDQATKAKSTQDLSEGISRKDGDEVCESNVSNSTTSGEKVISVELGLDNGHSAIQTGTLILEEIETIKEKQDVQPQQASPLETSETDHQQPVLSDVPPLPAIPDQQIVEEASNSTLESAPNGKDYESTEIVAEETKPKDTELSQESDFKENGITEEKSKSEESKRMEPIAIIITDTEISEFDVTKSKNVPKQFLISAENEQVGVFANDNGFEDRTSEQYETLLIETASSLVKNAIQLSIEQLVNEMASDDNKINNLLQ

Row | Molecule | stoichiometry N [1] | fold increase of AKAP12 co-precipitated with AKAP5 after 30 min isoproterenol, over unstimulated cells [2]
1 | His-tagged AKAP12 (purified, used for steric-exclusion chromatography) (from UniProt Q02952 1-1782) (natural protein) | 4 | 
2 | B1 |  | 4 fold
